We go through one substance from FireProtDB (doi:10.1016/s0167-4838(99)00132-6).

The conditions of this data set: Oryctolagus cuniculus; pH 6; Thermal; DSC; KH2PO4-KOH 10 mM; reversible: no.

Sequence of Glyceraldehyde-3-phosphate dehydrogenase wild type, P46406 (P46406 whole entry): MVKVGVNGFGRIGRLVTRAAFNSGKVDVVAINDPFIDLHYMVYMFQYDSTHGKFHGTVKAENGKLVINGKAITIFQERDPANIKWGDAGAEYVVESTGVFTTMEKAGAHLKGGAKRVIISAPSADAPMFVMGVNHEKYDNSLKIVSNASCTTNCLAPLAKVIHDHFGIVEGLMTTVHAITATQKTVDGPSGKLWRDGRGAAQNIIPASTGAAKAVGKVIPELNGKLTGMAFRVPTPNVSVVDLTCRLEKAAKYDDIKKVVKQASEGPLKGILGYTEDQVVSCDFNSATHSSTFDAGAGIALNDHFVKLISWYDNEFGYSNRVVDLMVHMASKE

For “Glyceraldehyde-3-phosphate dehydrogenase wild type, P46406”, the Tm (usually the temperature at the midpoint of the melting transition) came out at 68.9 °C and the “unfolding enthalpy (calorimetric)” value was 693 kcal/mol.
